Assay: label from the status in PepcDB records

Sequence | protein production
MCCCVQFLMSFSSVPSAMPAIDPDALESQVAQRLDPHGSDGVQSALSGVVDLEALEERRYGEVLGAIDQRLTQSRYSLLSMVVAGIYFGLLVGLWLVDGSTWSRIALWLAPTLLVAVYGLYATHQTVRQIRHLSETRALLQILMNGPSADG | failed
MTAFAAASPRAAVRTGFDGLAISVATRAMMKNLDQNFDAILITGPTASGKSALALRLARERNGVVINADSMQVYDTLRVLTARPSDHEMEGVPHRLYGHVPAGSAYSTGEWLRDISGLLSDLRGEGRFPVIVGGTGLYFKALTGGLSDMPAIPDDLREGLRARLIEEGAAKLHAELVSRDPSMAQMLQPGDGQRIVRALEVLEATGKSIRDFQRASGPMIIDPERAQKFIVLPERPVLHDRINRRFEAMMDSGAVEEVQALLALNLAPDATAMKAIGVAQIADMLTGRMGAAEVIEKSAAATRQYAKRQMTWFRNQMGDDWTRIQPLEHHHHHH | failed
KVIIAIDAGHGGQDPGAIGPNGTKEKNVTIAIARKLRALLNADPQFKPVLTRDGDYFISVMGRSEVARKQNANFLVSIHADAAPNRDATGASVWVLSNRRANSEMAGWLEQHEKQSELLGGAGDVLANSQADPYLSQAVLDLQFGHSQRVGYDVATNVLSQLQRIGNLHKRRPEHASLGVLRSPDIPSILVETGFISNNGEERLLGSDDYQEQIAEAIYNGLRNYFMQHPLQSAPRGEAAQTASAAAPGGMLIN | failed
MRDLDREETYLVDRTGLALELRDLVGTGPVPGEAYPGPHAALGYGEGQFAALLSGLPDWGEEGTLFLLEGGYDLGEAAGMALLAETGRARVVRVGFRPGVEVHIPPSPLAPYRYLRFLLLATGREEVLRSVDEALLEERRRLGPEVPVEENPAKFLAYTLLERLPLFYSPLFRPLEGAVQTLFARVAKSLSLTPPPSALEFFLVGLEARHEQGDPLAAVLLGPGEEAALAKEILESRVDALAEVPATGANRLAQVMALWYRMAWTAYYLALLYGVDPGDHGLLERLREVT | not failed
MKKYFITIMILLFGTLILAACQNSDEADNYEPPKVDLKDQIPIILIHGSGGNASSLDKMADQLMNEYRSSNEALTMTVNSEGKIKFEGKLTKDAKRPIIKFGFEQNQATPDDWSKWLKIAMEDLKSRYGFTQMDGVGHSNGGLALTYYAEDYAGDKTVPTLRKLVAIGSPFNDLDPNDNGMDLSFKKLPNSTPQMDYFIKNQTEVSPDLEVLAIAGELSEDNPTDGIVPTISSLATRLFMPGSAKAYIEDIQVGEDAVHQTLHETPKSIEKTYWFLEKFKTDETVIQLDYK | failed
MAVEEVIEMQGLSLDPTSHRVMAGEEPLEMGPTEFKLLHFFMTHPERVYSREQLLNHVWGTNVYVEDRTVDVHIRRLRKALEPGGHDRMVQTVRGTGYRFSTRF | not failed
MSSKPLYTILTVFNPIFIYFTKRDNLHTLRFKKDRAIKISEELFPDELCERCGRCCILHAYKTEDGIKTIYCEHLDPETKLCKVYKDRFKHRCLTVMEGILAGVFPKDCPYVKNLKNYEEPWFYRHLRDLEHHHHHH | failed
MEDEIKSFAKDRKLIIEDSKNSKNNIVEVQKAIETLKDEKNAKNVVVDFTEYNPLHNGHKYCMDFGKREGLFISVIPGPLERSGRGIPYLVNRYIRSEMALLAGADLVVEGPPMGIMGSGQYMQCLIKIFSALNGDIIPRGYIEEETMEKVINSINNKNHIKIKPYNISCIETGEKFGEKLEIDNYVIASMSYTIYKLKENFPEWKPKFKFIERIEGISGTKIREGVFNNNFESIKHMLPETTLNVFKSFENNLSEIILKRNEQMVLDTVNNFDLSKYLPENISEKLNEKEYYKSIEEIKECIPRGFSKNNIERTISKLEARIEKETISKYIENYPANLKILKGINNNE | failed
MKTIEIFDPAMCCPTGLCGTNINPELMRIAVVIETLKRQGVVVTRHNLRDEPQVYVSNKTVNQYLQKNGAEALPITLVDGEIAVSKDYPTTKQMSEWTGINLD | not failed
MTDKKSENKTIQGASSLSLENRKILSITGVNEVINFDEEKISLKTDLGPLLIKGSELKMNKLDVQNGEVIIGGFISNIDYLNKKNKRKRNINLLSKIFKLEHHHHHH | not failed
MGRSAVYTILTTGYVGSTGPGVAATVSYVADGGRHVVFDPGMVASRDHILGPLAELGLGPDDITDVVLSHHHPDNTMNVGLFGRATVHDHKVEYLGDQWRNRDAEGYELTPSLRLIRTPGHSLEDITLLAGTDTGVVAFAGDLWWHSDGPADDPVAPDREVLRASRLRVLAAADLIVPGHGSPLEHHHHHH | failed
MRGAESLVTLNHKILRPCRKLLIRITKSCPRRHNRHLKLKKASSSSSTASGNKVTKVVALFFLSFHKKKQKKEKMKRLNELRSFSHAVNDQKKKAPKQESSKKVFPSRLTMSWLGQGKGNNNNTQEVPQEHDARRDSTSAFIP | failed
MFKNVKKSVTRTIASAMLLILLLSVATTGFAIFTLASSLNDAEAVNVAGSMRMQSYRLAHDIQIRSVDYSSHIDAFEHSIYSSSMKALQHWSVPEDITHDYYRLIMRWHELKSVLRGEDPSQYQLLVAGFVQQIDDFVFKLQNFSEQKLINLAWIGGLGLGGILCASMFVVHFIRLEVVRPLRALVFASERIKNRSFDINLAVSSDNEMGILTRTFNRMATDLGKLYRGLEQAVDEKTRKLQHANQSLEVLYDSSKELTASRINQDNFQAILKHIASLEGIKAVKLEIEQLGEPNWILTEGEECCHDCDDECHAEPLTLDGEHLGSLYWKAGLPCPNETLIDNFVQILSRAVYYNRAQRQAEQILLMEERATIARELHDSLAQALSYLKIQVALLKRSVKNLPDEKAIAQANQVIAELDTGLSAAYTQLRELLTTFRLTIKEGSFGQALQEMVETLNEQTTAEITLKNRLSSTELDAHQQVHLLQLIREAALNAIKHAQADHIHIQCLDCDGKVTVTVSDDGVGFEHQDEKINHYGMTIMQERAARLHADLQIEASINKGCTVKLEFQHSKEVNFDSV | failed
MGPQRRLRPHEPWPTRSQPGSPAAAESSFLPSVSLLSWKLGDSAMSENRKLAAILAADVVGYSRLAGADEDLTLARLRTLRSDLIDPTIAVHHGRVVKRTGDGALVEFRSVVDAVRCAIEVQNGMVERNHGVPQDRRIEFRIGIHLGDVVEESDGDLMGDGVNIASRLEGVAAAGAICLSEDAYRQVKARLDLSVNDLGSTQLKNIAEPIRVYSLQVGSAGTKLAASPETAVSQPATAAPPKLSIAVLPFTNMSGDAEQDYFADGISEDIITALSKLSQLFVIARNSSFTFKGKNVHVQEVGTKLGVRHVLEGSVRKSGNRVRITAQLIDATTGGHLWAERFDRDLTDIFAVQDDVTQQIVGALAVNLTEGDRQRLAPGQTRHPEAYDCFLRGRELWHRLTRQTNSDARDLLQRAVDLDPNFASAHAFLALTHGLDYLNRWSALPQRSLEQAEEVATLAVARDDSDPVAHWALSLVSLYLRQHDRAISEAERAIVLNPNFAEGHVSLGEALIYSGRSGEALAYFDRASVLNPYFPDIVLHFQALALFQLGRYEEAVELLLQRVSRNPVTDVSRALLAACYGHLGRFEEARATWQEVMRVNPDYSLEYRRKVLPFKNPADFELVVEGLRKAGVVQ | failed
MIYLFLALLSYACTYCLVGLLIQGQLADVAEGLRHRPDAPTPGEYLREVGPRARQARRQYTLIAGSVLAVLACLIASGFG | failed
MDQESNATSQDILKQHAAHYESDMGGLPEALVQLAEYAPETFDAYSRMRTTMLKSEADGAKLPLKYKHLILVVLDAIRDEPIGIVNHTRAAMNAGLSVDELIEGILLGIIVYGMPAWGKTGRKAVTFAVEFEKELAGKRT | not failed
MTSVSGCGSVSLITNRSAFLGNGLQHRAVFLKPWSSSSLQSRSMVVEAKTKTSSEDRIARHSRIRKKVNGTTERPRLCVFRSNKHLYVQVIDDTKMHTLASASTKQKPISEEFDYTSGPTIEVAKKVGEVIAKSCLEKGITKVAFDRGGYPYHGRIEALAAAAREHGLQF | failed
MLIITYISACILFLVSFSHVYWAFGGNWGTNSVIPTKAGEKAFTPRAGMTLVIALLLSMAAIILLQQANIVHFAVPNVIIQVGSWICMIVFSIRVIGEFNYFGIFKRQKDTHFARMDTGLYIPLCAFLSLSFLLAIIL | failed
MKHAFDRFVQYLQKNYFSYWIVLGIDTFIALICTWVSFIGIHYITETSKEITSLFHILAISVISSILGSFLFHTYRNTIRFSQLKELWRLAGSALIKAVCIAMAIWLFLPQTGLHNSQKIVFVLFDGMLTFIAMVGFRIQLILVYELLLNMLNKKNMHILIYGIDDKSVALKVRLMNSSHYKVVGFCIYGTGDSIRRVADLPVYSFKDEECFNKLIHKKCIGGILFARYENTREEEDRLLQYCKRSGLKTLIAPSISEADENGSFHQWVRPIKIEDLLGRSEIHINMEEVMTEFCGKVVLVTGAAGSIGSELCRQLAQMNIKKLIMFDSAESPLHNVRLEFEKNYPDLDFVPVIGDVRVKERLRMVFETYQPQIIFHAAAYKHVPLMEENPCEAVLVNVVGSRQVADMAVEYGAEKMIMVSTDKAVNPTNVMGCSKRLAEIYVQSLGCAIREGKVKGHTKFITTRFGNVLGSNGSVIPRFKEQIENGGPVTVTHPDIIRFFMTIPEACRLVMEAATMGEGNEIFVFEMGKAVKIVDLATRMIELAGYRPGEDIEIEFTGLRPGEKLYEEVLSDKENTIPTENKKIMIAKVRHYEYTDILDTYTEFEKLSRSVQIMDTVKLMKRVVPEFKSKNSPRFEVLDR | failed
AVGSGSEGFIVRLPAALLFKEGGIEVENSDGFLFVKRMAEIVNRLPKDVHVEVRGHTDTLPLPAQAPQDKLELTAKRALSVSKLLVKEGIDPKRITTVGRGDQDPLTHARTPEAQESNRRVDIYLYPKE | not failed
MNSLPIADLLVSAVIAACIVLSAMRGVIAEAGSMAAWVVSFFFAKLFAASFADLAFASFQPRLFALALSFISLFVIACLIQKMLRSLLTSAVSAVGLGFANRILGGVFGALKGVLIVTLLVMLASKTDLPDTEEWRQSYTLPFFVSLSEAVLNHSGGTAETPEDD | failed
MVWPHLYFSELEAQHIMTSIISSSWFKFSVVAASITGIMMLSGCAKKEAQDLTTLNIGFQKYGLLPIVKERGELDKILKKEGITIKWVEFPAGPQLLEGLNVGSVVFGEAGEAPPIFAQAANSNLVYVANQPAAPNAEALIVQKNSSVHSVQDLKGKRIALNKGSNVHYLLLKLLEKNHLTLNDIQVVYLPPADARAAFEKGAVDAWVIWDPFFAAAEQQIGARVIATGQDLVSNHQFYLADRKFAQNHPEVLKTLVKELNQSTEWVKTHQDDAAKLLEKPTALDFNILKTSISRMGFGVTPLSNTVINEQQQVADAFYQQKLIPQPLKIQDAILKGEIK | failed
MSQNLQPPIPLLVPETAPFSEEQRAWLNGFFAGLVSLDGQGVTALSPDQAAALLAGGPAPVAEDDDGGAPWHDQSLPIGERMQLAEGKPLRWKLMAAMAQQDCGQCGYDCRNYSGAIFDGQETRLNLCAPGGKDTARMVKTLTEQIGAAPTLDNAPSLAADAAPVVALPPRGTSRDNPATAKVLSRKRLNKPGSEKETWHVEFELEDCLSYEAGDSFGLFPTNDPALVDAVLHALGAPAEFPIAQSTLRQTLLDSVSLSPAPDMLFQLISYITGGDKRKKARSLASGEDPDGDAATLDVLAALEKFPGLRPDPEAFIEALDPLQPRLYSISSSPKTTPGRLSLTVDCVRYAIGKRQRLGVCSTGLAERVRPGETLRAYVQKAHHFALPSDPNQPIIMIGPGTGIAPFRAFLHERQAIQAPGKNWLFFGHQRSASDFFYEDELKAMKTAGHLTRLTLAWSRDSGEKIYVQDRIREVGRDLWSWLAEGASLYVCGDAKRMAKDVERALVDIVAQHGARSAAEATAFVSELKKQGRYQQDVY | failed
